From paper doi:10.1101/2020.08.02.233536 come the findings set out here.

Assay [1] deals with His-tagged SARS-CoV RBD protein (binding studies) (SARS-CoV) (UniProt P59594). The assay can be described thus: BLI.
For assay [2], the target named is His-tagged SARS-CoV-2 RBD protein (binding studies) (SARS-CoV-2) (UniProt P0DTC2). Put plainly: BLI.

COVA1–16 Fab, His-tagged: the Kd in assay [1] turned out to be 405 nM; in assay [2], 46 nM.
Taken in the same sequence, the figures for COVA1–16 IgG1 antibody were 125 nM and 0.2 nM.
